Source: PMC10388305, “Synthesis and Evaluation of a Monomethyl Auristatin E—Integrin αvβ6 Binding Peptide–Drug Conjugate for Tumor Targeted Drug Delivery” (Journal of Medicinal Chemistry, 2023)
Ends that are not written are not given here.

Legend:
BxPC-3 cells = assay: In vitro cell blocking assay, BxPC-3; format: cell-based; conditions: 1 h, 37 °C, n = 3
Protocol: Cell binding and internalization assay. Binding and internalization were determined as previously described. In brief, bovine serum albumin (BSA, 0.5% w/v in PBS) was used to pretreat the assay tubes to prevent non-specific binding. Aliquots of [64Cu]2 or [ 64Cu]PDC-1 (≤1 μL, 7.4-18.5 KBq in 50 μL PBS, pH = 7.4) were added to a cell suspension (3.75 × 10 6 cells in 50 μL serum free medium), incubated for 1 h at 37 °C, and gently agitated every 5 minutes (n = 3/cell line/compound). The cells were pelleted by centrifugation at 200×g for 3 min and the supernatant collected. The cell pellet was washed with 0.5 mL serum free medium and the wash medium combined with the original supernatant. […] The fraction of bound radioactivity was determined with a γ-counter (by measuring cell pellet and combined supernatants). To determine the fraction of internalized radioactivity, the cells were re-pelleted, and re-suspended in acidic wash buffer (0.2 M sodium acetate, 0.5 M sodium chloride, pH = 2.5, 300 μL, 4 °C, 5 min) to release surface bound activity, followed by a wash with PBS (300 μL). The internalized fraction was determined with a γ-counter (cell pellet vs. radioactivity released into supernatant). A Wizard 1470 or Wizard 2 2470 automatic γ-counter (Perkin-Elmer, Waltham, MA) was used to measure radioactivity samples. […]
Figure S3. […] Data are expressed as mean ± SD. […]

[1] = system: glioblastoma U87MG xenograft mouse model; conditions: cited from earlier work
Excerpt: (§1) Wang et al. described a similar radiolabeling approach with copper-64 to imag ...

[2] = system: MDA-MB-435 breast cancer xenograft tumor model; conditions: copper-64 labeled; 4 h; cited from earlier work
Excerpt: as §1

| Compound | Concentration of non-radioactive DOTA-PDC-1 required to block [64Cu]PDC-1 binding (BxPC-3 cells) | Liver accumulation ([1]; 20 h, model not stated) | Tumor uptake ([1]; copper-64 labeled, 4 h) | Tumor accumulation [2] |
| --- | --- | --- | --- | --- |
| CC[C@H](C)[C@@H]([C@@H](CC(=O)N1CCC[C@H]1[C@H](OC)[C@@H](C)C(=O)N[C@H](C)[C@@H](O)c1ccccc1)OC)N(C)C(=O)[C@@H](NC(=O)[C@H](C(C)C)N(C)C(=O)OCc1ccc(NC(=O)[C@H](CCCNC(N)=O)NC(=O)[C@@H](NC(=O)CCOCCOCCNC(=O)CCN2C(=O)CC(SC[C@H](NC(=O)CN3CCN(CC(=O)O)CCN(CC(=O)O)CCN(CC(=O)O)CC3)C(=O)NCCOCCOCCOCCOCCOCCOCCOCCOCCOCCOCCOCCOCCOCCOCCOCCOCCOCCOCCOCCOCCOCCOCCOCCOCCOCCOCCOCCOCCC(=O)N[C@@H](CC(N)=O)C(=O)N[C@@H](C)C(=O)N[C@H](C(=O)N3CCC[C@H]3C(=O)N[C@@H](CC(N)=O)C(=O)N[C@@H](CC(C)C)C(=O)N[C@@H](CCCNC(=N)N)C(=O)NCC(=O)N[C@@H](CC(=O)O)C(=O)N[C@@H](CC(C)C)C(=O)N[C@@H](CCC(N)=O)C(=O)N[C@H](C(=O)N[C@@H](CC(C)C)C(=O)N[C@@H](C)C(=O)N[C@@H](CCC(N)=O)C(=O)N[C@@H](CCCNC(=N)N)C(=O)N[C@H](C(=O)N[C@@H](C)C(=O)N[C@@H](CCCNC(=N)N)C(=O)N[C@H](C(=O)NCCOCCOCCOCCOCCOCCOCCOCCOCCOCCOCCOCCOCCOCCOCCOCCOCCOCCOCCOCCOCCOCCOCCOCCOCCOCCOCCOCCOCCC(N)=O)[C@@H](C)O)C(C)C)C(C)C)C(C)C)C2=O)C(C)C)cc1)C(C)C (stereo partly shown) [DOTA-PDC-1] | 80 to 160 nM |  |  |  |
| CDCRGDCFC (also: bicyclic or more (positions not given here)) [TNF-PDC] |  | 16.22 ± 1.46 % ID/g | 8.11 ± 0.88 % ID/g | 3.94 ± 0.48 % ID/g |
